Source: publication PMC5004290, “Mapping an epitope in EBNA‐1 that is recognized by monoclonal antibodies to EBNA‐1 that cross‐react with dsDNA” (Immunity, Inflammation and Disease, 2016)
No end group written: not given here. *: point of attachment. Biotin = O=C1N[C@H]2[C@H](CS[C@H]2CCCCC(=O)*)N1

T1: Peptide GL-15 of EBNA-1 (aa 552-566) (Epstein-Barr virus (strain B95-8) …)
T1 construct: EBNA-1 of Epstein Barr virus, aa 552-566; it is surmised from the streptavidin format of the peptide ELISA; source: synthetic peptide
T1 chain: GPLRESIVCYFMVFL

B1: IgG monoclonal antibody 3D4 to EBNA-1 (antibody, V domains shown)
VH: LQESGGGLVKPGGSLKLSCAASGFAFSSYDMSWVRQTPEKRLEWVATISSGGSYIYYPDSVKGRFTISRDNARNTLYLQMSSLRSEDTALYYCARPPPFYFDYWGQGTTLTVSS
VL: TQSPLSLPVSLGEQASISCRSSQSLVHSNGNTYLHWYLQKPGQSPKLLIYKVSNRFSGVPDRFSGSGSGTDFTLKISRLEAEDLGFYFCSQTTHVPWTFGGGTK
notes: gamma heavy chain, germline VH7183.14, JH2, 3 mutations; kappa light chain, germline bb1, JK1, 5 mutations; Mouse IgG1 kappa; also called MAb 3D4; source: hybridoma from an EBNA-1 injected mouse; IgG MAbs purified on protein G sepharose columns

Legend:
[1] = target: IgM monoclonal antibody 16D2 to EBNA-1 (mouse); assay: ELISA; peptide inhibition ELISA; 16D2 (5 μg/ml) pre-incubated 1 h at 37°C with 0.1 to 100 μg/ml of peptide, then transferred to dsDNA coated plates, 2 h at 37°C
IgM monoclonal antibody 16D2 to EBNA-1 (mouse), sequence (heavy, as listed by the source): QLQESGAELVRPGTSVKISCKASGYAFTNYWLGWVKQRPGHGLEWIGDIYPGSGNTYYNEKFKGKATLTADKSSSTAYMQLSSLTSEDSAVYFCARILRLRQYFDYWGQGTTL

[2] = target: IgM monoclonal antibody 16D2 to EBNA-1 (mouse); assay: ELISA; peptide inhibition ELISA; 16D2 (5 μg/ml) incubated with 0.1 μg/ml to 1 mg/ml of peptide, then transferred to EBNA-1 coated plates, 1 h at 37°C
[3] = target: T1, Peptide GL-15 of EBNA-1 (aa 552-566); assay: ELISA; anti-peptide ELISA; biotinylated peptide (100 μg/ml), or mole equivalents of biotinylated PFM-15 and biotinylated EBNA-1, on streptavidin coated plates; 3D4 at 5 μg/ml in PBS, 0.1% BSA, 1 h at 37°C; details: both partners purified

Binder | percent inhibition of binding to dsDNA at 100 μg/ml of peptide [1] [%] | percent inhibition of binding to EBNA-1 at 100 μg/ml of peptide [2] [%] | binding result [3]
Biotin-PQPGPLRESIVCYFM [Peptide PFM-15 of EBNA-1 (aa 549-563)] | 60 | 70 | –
B1 | – | – | binds
